Measurements as given in article PMC13031973 (Nature Communications, 2026).

How the values were obtained:
[1] = target: T1, purified proteasome subunit RPN1 (PSMD2) (human, UniProt Q13200 1-908); assay: ITC
[2] = target: T1, purified proteasome subunit RPN1 (PSMD2); assay: SPR

T1 sequence (Q13200 whole entry): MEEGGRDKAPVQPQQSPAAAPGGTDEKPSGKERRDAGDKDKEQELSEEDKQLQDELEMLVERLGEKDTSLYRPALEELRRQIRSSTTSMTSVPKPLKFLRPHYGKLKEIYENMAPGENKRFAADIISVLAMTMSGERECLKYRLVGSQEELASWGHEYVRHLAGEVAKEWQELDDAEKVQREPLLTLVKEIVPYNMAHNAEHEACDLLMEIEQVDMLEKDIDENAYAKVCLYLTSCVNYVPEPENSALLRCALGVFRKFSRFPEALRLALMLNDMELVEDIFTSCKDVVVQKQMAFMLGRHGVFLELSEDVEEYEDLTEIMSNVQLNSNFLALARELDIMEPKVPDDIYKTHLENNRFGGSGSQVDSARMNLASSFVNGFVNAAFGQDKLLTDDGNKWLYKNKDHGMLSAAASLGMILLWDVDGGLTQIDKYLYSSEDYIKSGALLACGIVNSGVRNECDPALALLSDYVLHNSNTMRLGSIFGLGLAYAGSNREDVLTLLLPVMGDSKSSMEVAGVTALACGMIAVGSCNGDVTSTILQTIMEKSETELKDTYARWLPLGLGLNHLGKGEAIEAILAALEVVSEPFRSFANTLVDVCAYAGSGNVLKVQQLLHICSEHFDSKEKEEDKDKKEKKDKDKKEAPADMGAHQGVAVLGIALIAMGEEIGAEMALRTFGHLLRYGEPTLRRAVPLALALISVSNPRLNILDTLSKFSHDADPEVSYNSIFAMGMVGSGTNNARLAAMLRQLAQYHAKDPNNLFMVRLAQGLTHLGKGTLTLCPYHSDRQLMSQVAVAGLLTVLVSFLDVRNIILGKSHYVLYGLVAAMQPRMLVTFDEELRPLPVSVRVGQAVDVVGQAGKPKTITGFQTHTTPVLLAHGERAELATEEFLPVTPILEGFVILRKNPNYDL

Binder	Kd [1] [nM]	Kd [2] [nM]
MIDN(337-468) (domain or fragment) SPASPAPDLAPRTTSCEKLTAAPSASLLQGQSQIRMCKPPGDRLRQTENRATRCKVERLQLLLQQKRLRRKARRDARGPYHWSPSRKAGRSDSSSSGGGGSPSEASGLGLDFEDSVWKPEVNPDIKSEFVVA	~130	390
MIDN(337-432) (domain or fragment) SPASPAPDLAPRTTSCEKLTAAPSASLLQGQSQIRMCKPPGDRLRQTENRATRCKVERLQLLLQQKRLRRKARRDARGPYHWSPSRKAGRSDSSSS	~146	663
